T1: human placenta growth factor (PlGF-2) (human, UniProt P49763-3 19-170, limits assumed)
T1 construct: also called human P1GF-2
T1 sequence (looked up): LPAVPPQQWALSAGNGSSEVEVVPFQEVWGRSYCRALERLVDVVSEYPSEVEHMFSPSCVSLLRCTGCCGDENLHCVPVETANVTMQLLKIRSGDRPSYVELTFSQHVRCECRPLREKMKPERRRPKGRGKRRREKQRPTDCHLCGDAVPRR

T2: human VEGF-B (human, UniProt P49765-2 22-188, limits assumed)
T2 sequence (looked up): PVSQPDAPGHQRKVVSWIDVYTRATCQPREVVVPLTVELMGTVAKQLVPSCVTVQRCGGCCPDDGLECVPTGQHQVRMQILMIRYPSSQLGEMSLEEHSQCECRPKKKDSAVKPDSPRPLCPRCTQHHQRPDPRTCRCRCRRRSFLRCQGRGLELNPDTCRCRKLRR

T3: mouse placenta growth factor (PlGF-2) (mouse, UniProt P49764 24-158, limits assumed)
T3 construct: also called murine P1GF-2
T3 sequence (looked up): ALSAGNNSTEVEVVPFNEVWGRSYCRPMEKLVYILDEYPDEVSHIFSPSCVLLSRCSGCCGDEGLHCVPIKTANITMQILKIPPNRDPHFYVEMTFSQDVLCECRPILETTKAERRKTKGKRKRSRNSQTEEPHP

T4: murine VEGF-D (mouse, UniProt P97946 98-206, limits assumed)
T4 construct: also called mVEGF-D
T4 sequence (looked up): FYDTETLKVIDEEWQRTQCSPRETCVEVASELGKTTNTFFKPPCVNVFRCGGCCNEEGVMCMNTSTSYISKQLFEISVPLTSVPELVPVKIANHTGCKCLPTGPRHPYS


Experiments:
murine VEGF (mouse) [1] = target: murine VEGF (mouse) (UniProt Q00731); experiment: BIAcore or solution binding ELISA, Fab, measured as control in the same assays
murine VEGF (mouse) [2] = target: murine VEGF (mouse) (UniProt Q00731); experiment: 25C; given as unpublished results
[3] = target: T1, human placenta growth factor (PlGF-2); experiment: direct ELISA on homolog-coated wells (2ug/ml), increasing G6 Fab
human VEGF-B = target: T2, human VEGF-B; experiment: as above
[4] = target: T3, mouse placenta growth factor (PlGF-2); experiment: as above
murine VEGF-D = target: T4, murine VEGF-D; experiment: as above

Sequence of murine VEGF (mouse) (Q00731 other isoform, or with tags, fused parts or gaps limits assumed): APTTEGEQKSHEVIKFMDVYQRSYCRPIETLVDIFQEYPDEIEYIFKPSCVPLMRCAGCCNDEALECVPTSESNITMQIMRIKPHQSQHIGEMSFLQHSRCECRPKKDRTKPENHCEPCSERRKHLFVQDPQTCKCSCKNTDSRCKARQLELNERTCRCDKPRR

affinity (murine VEGF (mouse) [1]) [nM]	Kd (murine VEGF (mouse) [2]) [nM]	binding result [3]	binding result (human VEGF-B)	binding result [4]	binding result (murine VEGF-D)	Molecule
350	300	–	–	–	–	Y0317 Fab
–	–	no binding	no binding	no binding	no binding	G6 Fab (Fab, V domains shown, also called G6 antibody; G6 clone) VH: EVQLVESGGGLVQPGGSLRLSCAASGFTISDYWIHWVRQAPGKGLEWVAGITPAGGYTYYADSVKGRFTISADTSKNTAYLQMNSLRAEDTAVYYCARFVFFLPYAMDYWGQGTLVTVSS VL: DIQMTQSPSSLSASVGDRVTITCRASQDVSTAVAWYQQKPGKAPKLLIYSASFLYSGVPSRFSGSGSGTDFTLTISSLQPEDFATYYCQQSYTTPPTFGQGTKVEIKR

From patent WO2005044853A2 (dated 2005)
